Residue numbers refer to the chain shown, from its start. Read-outs that look alike come from different tables or passages of the source. Each block holds one binder with its values, some of them ahead of it.
Experiments:
human TIMP-1 [1] = biological target: T1, human TIMP-1 (human, UniProt P01033 24-207); test: cell-based or functional assay
human TIMP-1 [2] = biological target: T1, human TIMP-1; test: BIAcore SPR, Fab, monovalent fit
human TIMP-1 [3] = biological target: T1, human TIMP-1; test: BIAcore SPR, Fab, monovalent fit; remark: listed apart in the source
human TIMP-1 [4] = biological target: T1, human TIMP-1; test: cell-based or functional assay; remark: listed apart in the source
human TIMP-1 [5] = biological target: T1, human TIMP-1; test: cell-based or functional assay; remark: listed apart in the source
human TIMP-1 [6] = biological target: T1, human TIMP-1; test: BIAcore SPR, Fab
rat TIMP-1 [7] = biological target: T2, rat TIMP-1 (rat, UniProt P30120 24-217); test: cell-based or functional assay
T2 sequence (P30120 24-217 limits assumed): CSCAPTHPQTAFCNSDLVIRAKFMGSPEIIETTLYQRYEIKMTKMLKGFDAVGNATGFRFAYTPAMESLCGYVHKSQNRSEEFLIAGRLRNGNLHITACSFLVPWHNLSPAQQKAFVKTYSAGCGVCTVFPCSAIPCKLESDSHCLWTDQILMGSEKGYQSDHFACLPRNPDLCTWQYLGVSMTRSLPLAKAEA

rat TIMP-1 [8] = biological target: T2, rat TIMP-1; test: BIAcore SPR, Fab
rat TIMP-1 [9] = biological target: T2, rat TIMP-1; test: cell-based or functional assay; remark: listed apart in the source

- IC50 in human protease assay (human TIMP-1 [1]): 11 nM
- Kd (human TIMP-1 [2]): 13 nM
- Kd (human TIMP-1 [3]): 13 nM
B1: MS-BW-3 (Fab, V domains shown)
VH: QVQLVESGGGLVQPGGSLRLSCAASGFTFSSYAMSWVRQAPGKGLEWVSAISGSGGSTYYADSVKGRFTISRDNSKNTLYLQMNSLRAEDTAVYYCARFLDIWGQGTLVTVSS
VL: DIALTQPASVSGSPGQSITISCTGTSSDVGGYNYVSWYQQHPGKAPKLMIYDVSNRPSGVSNRFSGSKSGNTASLTISGLQAEDEADYYCQSYDFLRFSVFGGGTKLTVL

- improvement factor (IC50) over MS-BW-3 (human TIMP-1 [4]): 2.75 fold
B2: MS-BW-44 (Fab, V domains shown)
VH: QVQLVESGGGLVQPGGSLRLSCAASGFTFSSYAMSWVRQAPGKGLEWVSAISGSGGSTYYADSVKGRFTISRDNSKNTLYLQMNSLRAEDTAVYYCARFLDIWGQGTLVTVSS
VL: DIALTQPASVSGSPGQSITISCTGTSSDVGGYNYVSWYQQHPGKAPKLMIYDVSNRPSGVSNRFSGSKSGNTASLTISGLQAEDEADYYCQSYDFVRFMVFGGGTKLTVLG

- ID50 in human protease assay (modified assay) (human TIMP-1 [5]): 0.3 nM
B3: MS-BW-44-2-16 (Fab, V domains shown)
VH: QVQLVESGGGLVQPGGSLRLSCAASGFTFSSYAMSWVRQAPGKGLEWVSGISGNGVLIFYADSVKGRFTISRDNSKNTLYLQMNSLRAEDTAVYYCARWFDVWGQGTLVTVSS
VL: B2 VL

- ID50 in human protease assay (modified assay) (human TIMP-1 [5]): 0.2 nM
B4: MS-BW-44-2-4 (Fab, V domains shown)
VH: QVQLVESGGGLVQPGGSLRLSCAASGFTFSSYAMSWVRQAPGKGLEWVSGISGNGVLIFYADSVKGRFTISRDNSKNTLYLQMNSLRAEDTAVYYCARGLMDYWGQGTLVTVSS
VL: B2 VL

- ID50 in human protease assay (modified assay) (human TIMP-1 [5]): 0.2 nM
B5: MS-BW-44-2-15 (Fab, V domains shown)
VH: B3 VH with V102H
VL: B2 VL

- ID50 in human protease assay (modified assay) (human TIMP-1 [5]): 0.2 nM
B6: MS-BW-44-6-1 (Fab, V domains shown)
VH: B3 VH with S30N, G50V, V56S, L57N, I58T, F59Y, W99F, F100L, V102I
VL: B2 VL with V96I

- affinity gain factor (Kd) over MS-BW-44 (human TIMP-1 [6]): 5 fold
- gain factor (IC50) over MS-BW-44 (human TIMP-1 [4]): 5 fold
- ID50 in human protease assay (modified assay) (human TIMP-1 [5]): 0.4 nM
B7: MS-BW-44-2 (Fab, V domains shown)
VH: B3 VH with W99F, F100L, V102I
VL: B2 VL
notes: Fab

- affinity gain factor (Kd) over MS-BW-44 (human TIMP-1 [6]): 5 fold
- gain factor (IC50) over MS-BW-44 (human TIMP-1 [4]): 10 fold
- ID50 in human protease assay (modified assay) (human TIMP-1 [5]): 0.2 nM
B8: MS-BW-44-6 (Fab, V domains shown)
VH: B3 VH with S30N, G50V, V56S, L57N, I58T, F59Y, W99F, F100L, V102I
VL: B2 VL
notes: Fab

- IC50 in rat protease assay (rat TIMP-1 [7]): 20 mM
B9: MS-BW-63 (Fab, V domains shown)
VH: QVQLVQSGAEVKKPGESLKISCKGSGYSFTSYWIGWVRQMPGKGLEWMGIIYPGDSDTRYSPSFQGQVTISADKSISTAYLQWSSLKASDTAMYYCARILTGHVLLFDYWGQGTLVTVSS
VL: DIALTQPASVSGSPGQSITISCTGTSSDVGGYNYVSWYQQHPGKAPKLMIYDVSNRPSGVSNRFSGSKSGNTASLTISGLQAEDEADYYCQSDNPYLVFGGGTKLTVLG

- improvement factor (affinity) over parental clone (rat TIMP-1 [8]): 16.3 fold
B10: MS-BW-17-1 Fab (Fab, V domains shown)
VH: QVQLVQSGAEVKKPGESLKISCKGSGYSFTSYWIGWVRQMPGKGLEWMGIIYPGDSDTRYSPSFQGQVTISADKSISTAYLQWSSLKASDTAMYYCARLTNYFDSIYYDHWGQGTLVTVSS
VL: DIALTQPASVSGSPGQSITISCTGTSSDVGGYNYVSWYQQHPGKAPKLMIYDVSNRPSGVSNRFSGSKSGNTASLTISGLQAEDEADYYCQAFDVAPNGKVFGGGTKLTVLG
notes: Fab; LCDR3-optimised from MS-BW-17

- improvement factor (functional activity in the protease assay) over parental clone (rat TIMP-1 [9]): 10 fold
B11: MS-BW-17-2 (Fab, V domains shown)
VH: B10 VH
VL: B10 VL with D94A, A96M, G99V, K100E

Source: patent US20040105862A1 (published 2004)
